In patent US20250326817A1 (LA JOLLA INSTITUTE FOR IMMUNOLOGY, published 2025):

T1: mouse BTLA, full length, fused to EGFP, on HEK293 FreeStyle cells (mouse, UniProt Q7TSA3 30-306)
T1 construct: whole, on cells; also called mBTLA; mBTLA-EGFP; not shown: EGFP fused at the C-terminus (pEGFP-N1 vector)
T1 sequence (looked up): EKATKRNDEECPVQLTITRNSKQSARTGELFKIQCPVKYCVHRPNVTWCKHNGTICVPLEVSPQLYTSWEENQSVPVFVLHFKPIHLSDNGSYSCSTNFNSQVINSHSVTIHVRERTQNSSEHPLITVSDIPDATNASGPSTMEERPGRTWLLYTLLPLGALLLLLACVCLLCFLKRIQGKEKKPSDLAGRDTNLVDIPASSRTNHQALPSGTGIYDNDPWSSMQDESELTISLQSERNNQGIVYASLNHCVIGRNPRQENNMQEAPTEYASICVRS

T2: mouse LIGHT, full length, on transfected cells (mouse, UniProt Q9QYH9 1-239)
T2 construct: whole, on cells; also called mLIGHT; mLIGHT-IRES-EGFP
T2 sequence (looked up): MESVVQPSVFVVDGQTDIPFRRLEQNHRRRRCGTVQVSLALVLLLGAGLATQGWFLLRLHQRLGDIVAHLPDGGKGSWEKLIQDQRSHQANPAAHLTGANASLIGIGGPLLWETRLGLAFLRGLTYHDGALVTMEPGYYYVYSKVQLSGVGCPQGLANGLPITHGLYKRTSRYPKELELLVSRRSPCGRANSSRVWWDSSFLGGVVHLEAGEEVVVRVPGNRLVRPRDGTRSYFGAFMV

T3: mouse BTLA, soluble protein (analyte of the Octet assay) (mouse, UniProt Q7TSA3 30-183, limits assumed)
T3 construct: The construct is not described; also called mBTLA; mBTLA-penta-His-tag
T3 sequence (looked up): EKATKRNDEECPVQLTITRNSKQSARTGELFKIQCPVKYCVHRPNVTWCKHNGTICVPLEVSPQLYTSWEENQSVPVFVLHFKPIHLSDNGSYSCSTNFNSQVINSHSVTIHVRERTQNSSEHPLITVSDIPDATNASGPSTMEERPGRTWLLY

T4: mouse CD160 residues I30-H154 with C-terminal …, refolded from E. coli inclusion bodies (mouse, UniProt O88875 30-154, biotin (mCD160-biotin in the cell staining assay; site not stated))
T4 construct: range 30-154; also called mCD160; mCD160-biotin
T4 sequence: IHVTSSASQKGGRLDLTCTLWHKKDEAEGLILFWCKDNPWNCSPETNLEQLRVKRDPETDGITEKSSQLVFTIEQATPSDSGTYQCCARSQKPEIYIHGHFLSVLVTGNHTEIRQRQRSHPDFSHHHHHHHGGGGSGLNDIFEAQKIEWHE


Legend:
[1] = molecular target: T1, mouse BTLA, full length, fused to EGFP, …; assay: cell-cell flow cytometry (mHVEM-mCherry cells + mBTLA-EGFP cells)
Description: (§1) After 2˜3 days, the cells were harvested and diluted to […]. […] These cells were further recorded and analyzed by flow cytometry. […] The cells were incubated for 30 min with shaking at room temperature and washed once by PBS containing 0.2% BSA (PBS-BSA). The cells were re-suspended in 100 uL of PBS-BSA and analyzed by flow cytometry.

[2] = molecular target: T2, mouse LIGHT, full length, on …; assay: cell-cell flow cytometry (mHVEM-mCherry cells + mLIGHT-IRES-EGFP cells)
Description: as §1

[3] = molecular target: T3, mouse BTLA, soluble protein (analyte of …); assay: cell-protein flow cytometry (mHVEM-mCherry cells + mBTLA-His/anti-His green)
Description: as §1

[4] = molecular target: T4, mouse CD160 residues I30-H154 with …; assay: cell-protein flow cytometry (mHVEM-mCherry cells + mCD160-biotin/streptavidin-AF488)
Description: as §1

| Binder | binding result [1] | binding result [2] | binding result [3] | binding result [4] |
| --- | --- | --- | --- | --- |
| mouse HVEM, wild type, full length, fused to mCherry, on HEK293 FreeStyle cells (receptor, also called mHVEM; WT mHVEM; not shown: mCherry fused at the C-terminus (pmCherry-N1 vector)) QPSCRQEEFLVGDECCPMCNPGYHVKQVCSEHTGTVCAPCPPQTYTAHANGLSKCLPCGVCDPDMGLLTWQECSSWKDTVCRCIPGYFCENQDGSHCSTCLQHTTCPPGQRVEKRGTHDQDTVCADCLTGTFSLGGTQEECLPWTNCSAFQQEVRRGTNSTDTTCSSQVVYYVVSILLPLVIVGAGIAGFLICTRRHLHTSSVAKELEPFQEQQENTIRFPVTEVGFAETEEETASN | binds | binds | – | – |
| mouse HVEM R43D-M56A-K64D triple mutation, full length, fused to mCherry, on cells (receptor, also called mHVEM R43D-M56A-K64D; not shown: mCherry fused at the C-terminus (pmCherry-N1 vector)) QPSCDQEEFLVGDECCPACNPGYHVDQVCSEHTGTVCAPCPPQTYTAHANGLSKCLPCGVCDPDMGLLTWQECSSWKDTVCRCIPGYFCENQDGSHCSTCLQHTTCPPGQRVEKRGTHDQDTVCADCLTGTFSLGGTQEECLPWTNCSAFQQEVRRGTNSTDTTCSSQVVYYVVSILLPLVIVGAGIAGFLICTRRHLHTSSVAKELEPFQEQQENTIRFPVTEVGFAETEEETASN | – | – | no binding | – |
| G72D-V74A (receptor, on HEK293 FreeStyle cells; also called mHVEM G72D-V74A; not shown: mCherry reporter (and any vector linker) fused at the cytoplasmic C-terminus (pmCherry-N1)) QPSCRQEEFLVGDECCPMCNPGYHVKQVCSEHTDTACAPCPPQTYTAHANGLSKCLPCGVCDPDMGLLTWQECSSWKDTVCRCIPGYFCENQDGSHCSTCLQHTTCPPGQRVEKRGTHDQDTVCADCLTGTFSLGGTQEECLPWTNCSAFQQEVRRGTNSTDTTCSSQVVYYVVSILLPLVIVGAGIAGFLICTRRHLHTSSVAKELEPFQEQQENTIRFPVTEVGFAETEEETASN | no binding | binds | no binding | no binding |
| H86A-L90A (receptor, on HEK293 FreeStyle cells; also called mHVEM H86A-L90A; not shown: mCherry reporter (and any vector linker) fused at the cytoplasmic C-terminus (pmCherry-N1)) QPSCRQEEFLVGDECCPMCNPGYHVKQVCSEHTGTVCAPCPPQTYTAAANGASKCLPCGVCDPDMGLLTWQECSSWKDTVCRCIPGYFCENQDGSHCSTCLQHTTCPPGQRVEKRGTHDQDTVCADCLTGTFSLGGTQEECLPWTNCSAFQQEVRRGTNSTDTTCSSQVVYYVVSILLPLVIVGAGIAGFLICTRRHLHTSSVAKELEPFQEQQENTIRFPVTEVGFAETEEETASN | binds | no binding | – | binds |
| H86D-L90D (receptor, on HEK293 FreeStyle cells; also called mHVEM H86D-L90D; not shown: mCherry reporter (and any vector linker) fused at the cytoplasmic C-terminus (pmCherry-N1)) QPSCRQEEFLVGDECCPMCNPGYHVKQVCSEHTGTVCAPCPPQTYTADANGDSKCLPCGVCDPDMGLLTWQECSSWKDTVCRCIPGYFCENQDGSHCSTCLQHTTCPPGQRVEKRGTHDQDTVCADCLTGTFSLGGTQEECLPWTNCSAFQQEVRRGTNSTDTTCSSQVVYYVVSILLPLVIVGAGIAGFLICTRRHLHTSSVAKELEPFQEQQENTIRFPVTEVGFAETEEETASN | binds | no binding | – | binds |
| mouse HVEM H86D-L90A double mutein, full length, fused to mCherry, on cells (receptor, also called mHVEM H86D-L90A; mHVEM^-LIGHT; not shown: mCherry fused at the C-terminus (pmCherry-N1 vector)) QPSCRQEEFLVGDECCPMCNPGYHVKQVCSEHTGTVCAPCPPQTYTADANGASKCLPCGVCDPDMGLLTWQECSSWKDTVCRCIPGYFCENQDGSHCSTCLQHTTCPPGQRVEKRGTHDQDTVCADCLTGTFSLGGTQEECLPWTNCSAFQQEVRRGTNSTDTTCSSQVVYYVVSILLPLVIVGAGIAGFLICTRRHLHTSSVAKELEPFQEQQENTIRFPVTEVGFAETEEETASN | binds | – | – | binds |
| A76D_H86D_L90A (receptor, on HEK293 FreeStyle cells; also called mHVEM A76D-H86D-L90A; not shown: mCherry fused at the C-terminus (pmCherry-N1 vector) and any vector linker) QPSCRQEEFLVGDECCPMCNPGYHVKQVCSEHTGTVCDPCPPQTYTADANGASKCLPCGVCDPDMGLLTWQECSSWKDTVCRCIPGYFCENQDGSHCSTCLQHTTCPPGQRVEKRGTHDQDTVCADCLTGTFSLGGTQEECLPWTNCSAFQQEVRRGTNSTDTTCSSQVVYYVVSILLPLVIVGAGIAGFLICTRRHLHTSSVAKELEPFQEQQENTIRFPVTEVGFAETEEETASN | binds | no binding | – | no binding |
| G72D-V74R (receptor, on HEK293 FreeStyle cells; also called mHVEM G72D-V74R; not shown: mCherry reporter (and any vector linker) fused at the cytoplasmic C-terminus (pmCherry-N1)) QPSCRQEEFLVGDECCPMCNPGYHVKQVCSEHTDTRCAPCPPQTYTAHANGLSKCLPCGVCDPDMGLLTWQECSSWKDTVCRCIPGYFCENQDGSHCSTCLQHTTCPPGQRVEKRGTHDQDTVCADCLTGTFSLGGTQEECLPWTNCSAFQQEVRRGTNSTDTTCSSQVVYYVVSILLPLVIVGAGIAGFLICTRRHLHTSSVAKELEPFQEQQENTIRFPVTEVGFAETEEETASN | no binding | binds | no binding | no binding |
| mouse HVEM A76D, full length, fused to mCherry, on cells (receptor, also called mHVEM A76D; not shown: mCherry fused at the C-terminus (pmCherry-N1 vector)) QPSCRQEEFLVGDECCPMCNPGYHVKQVCSEHTGTVCDPCPPQTYTAHANGLSKCLPCGVCDPDMGLLTWQECSSWKDTVCRCIPGYFCENQDGSHCSTCLQHTTCPPGQRVEKRGTHDQDTVCADCLTGTFSLGGTQEECLPWTNCSAFQQEVRRGTNSTDTTCSSQVVYYVVSILLPLVIVGAGIAGFLICTRRHLHTSSVAKELEPFQEQQENTIRFPVTEVGFAETEEETASN | binds | binds | – | – |
| G72D-V74D (receptor, on HEK293 FreeStyle cells; also called mHVEM G72D-V74D; not shown: mCherry reporter (and any vector linker) fused at the cytoplasmic C-terminus (pmCherry-N1)) QPSCRQEEFLVGDECCPMCNPGYHVKQVCSEHTDTDCAPCPPQTYTAHANGLSKCLPCGVCDPDMGLLTWQECSSWKDTVCRCIPGYFCENQDGSHCSTCLQHTTCPPGQRVEKRGTHDQDTVCADCLTGTFSLGGTQEECLPWTNCSAFQQEVRRGTNSTDTTCSSQVVYYVVSILLPLVIVGAGIAGFLICTRRHLHTSSVAKELEPFQEQQENTIRFPVTEVGFAETEEETASN | no binding | binds | no binding | no binding |
| A76D_H86D_L90D (receptor, on HEK293 FreeStyle cells; also called mHVEM A76D-H86D-L90D; not shown: mCherry fused at the C-terminus (pmCherry-N1 vector)) QPSCRQEEFLVGDECCPMCNPGYHVKQVCSEHTGTVCDPCPPQTYTADANGDSKCLPCGVCDPDMGLLTWQECSSWKDTVCRCIPGYFCENQDGSHCSTCLQHTTCPPGQRVEKRGTHDQDTVCADCLTGTFSLGGTQEECLPWTNCSAFQQEVRRGTNSTDTTCSSQVVYYVVSILLPLVIVGAGIAGFLICTRRHLHTSSVAKELEPFQEQQENTIRFPVTEVGFAETEEETASN | binds | no binding | – | – |
| H86R-L90A (receptor, on HEK293 FreeStyle cells; also called mHVEM H86R-L90A; not shown: mCherry reporter (and any vector linker) fused at the cytoplasmic C-terminus (pmCherry-N1)) QPSCRQEEFLVGDECCPMCNPGYHVKQVCSEHTGTVCAPCPPQTYTARANGASKCLPCGVCDPDMGLLTWQECSSWKDTVCRCIPGYFCENQDGSHCSTCLQHTTCPPGQRVEKRGTHDQDTVCADCLTGTFSLGGTQEECLPWTNCSAFQQEVRRGTNSTDTTCSSQVVYYVVSILLPLVIVGAGIAGFLICTRRHLHTSSVAKELEPFQEQQENTIRFPVTEVGFAETEEETASN | binds | no binding | – | binds |
| H86D-L90R (receptor, on HEK293 FreeStyle cells; also called mHVEM H86D-L90R; not shown: mCherry reporter (and any vector linker) fused at the cytoplasmic C-terminus (pmCherry-N1)) QPSCRQEEFLVGDECCPMCNPGYHVKQVCSEHTGTVCAPCPPQTYTADANGRSKCLPCGVCDPDMGLLTWQECSSWKDTVCRCIPGYFCENQDGSHCSTCLQHTTCPPGQRVEKRGTHDQDTVCADCLTGTFSLGGTQEECLPWTNCSAFQQEVRRGTNSTDTTCSSQVVYYVVSILLPLVIVGAGIAGFLICTRRHLHTSSVAKELEPFQEQQENTIRFPVTEVGFAETEEETASN | binds | no binding | – | binds |
| G72A-V74D (receptor, on HEK293 FreeStyle cells; also called mHVEM G72A-V74D; not shown: mCherry reporter (and any vector linker) fused at the cytoplasmic C-terminus (pmCherry-N1)) QPSCRQEEFLVGDECCPMCNPGYHVKQVCSEHTATDCAPCPPQTYTAHANGLSKCLPCGVCDPDMGLLTWQECSSWKDTVCRCIPGYFCENQDGSHCSTCLQHTTCPPGQRVEKRGTHDQDTVCADCLTGTFSLGGTQEECLPWTNCSAFQQEVRRGTNSTDTTCSSQVVYYVVSILLPLVIVGAGIAGFLICTRRHLHTSSVAKELEPFQEQQENTIRFPVTEVGFAETEEETASN | no binding | binds | no binding | no binding |
